Earlier results on one substance are cited in paper PMC10086210.

One may read the Kd as the equilibrium constant for the complex coming apart.

The data set has as its target PD-L1 (Homo sapiens) (UniProt Q9NZQ7).
Sequence of UniProt Q9NZQ7 (Q9NZQ7 19-238): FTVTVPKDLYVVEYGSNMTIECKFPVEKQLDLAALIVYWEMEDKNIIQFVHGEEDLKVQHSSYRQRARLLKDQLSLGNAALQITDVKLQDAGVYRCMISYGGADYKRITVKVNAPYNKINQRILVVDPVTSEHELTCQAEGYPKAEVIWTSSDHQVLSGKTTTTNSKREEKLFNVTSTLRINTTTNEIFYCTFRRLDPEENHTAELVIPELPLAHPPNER

With DPPA-1, the Kd is 510 nM.
